The supplement of paper PMC10567573
± gives the standard deviation.

Experiment: protein stability index of a GFP-peptide fusion (GPS, HEK-293T) (PSI 1-6); higher = more stable
[1] = treatment: DMSO, c terminus: a fixed tail appended
[2] = treatment: MLN4924 1 uM, 8 h, c terminus: a fixed tail appended
[3] = treatment: DMSO, c terminus: native
[4] = treatment: MLN4924 1 uM, 8 h, c terminus: native
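Also: 24-mer peptide tiles fused after GFP, lentivirally expressed, FACS-sorted into six equal bins by GFP/DsRed ratio, decoded by Illumina sequencing, PSI is the read-weighted mean bin number.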

Row | Sequence | protein stability index [1] | protein stability index [2] | protein stability index [3] | protein stability index [4]
1 | VGELLPCKICGRTFFPVALKKHGP [ZC2HC1A] | 2.84 ± 0.51 | 2.57 ± 0.19 |  | 
2 | VGSGGATSGKLLLEADELCDDGGD [ZBTB22] | 5.56 ± 0.22 | 5.55 ± 0.22 |  | 
3 | VHQRGSSTAKKEDINLSVRKLLNR [TRIP13] | 3.72 ± 0.31 | 3.87 ± 0.25 |  | 
4 | VKDDDRLTFHRHPVAQSTDGIRGK [SPSB4] | 4.89 ± 0.25 | 4.83 ± 0.23 |  | 
5 | VKELGTVMRMLGQTPTKEELDAII [TNNC2] | 3.02 ± 0.29 | 3.04 ± 0.94 |  | 
6 | VKEPCSLPMLSVDMENKENGSVGV [SAMD13] | 5 ± 0.19 | 5.11 ± 0.21 |  | 
7 | VKNDRDRVGHKSIPMRNLRARPAK [SERPINB5] | 3.98 ± 0.35 | 4.4 ± 0.11 |  | 
8 | VKTRLEQEIATYRRLLEGEDAHLT [KRT17] | 3.62 ± 0.14 | 3.77 ± 0.3 |  | 
9 | VLGFLIENFKGLAIPYLEHIIHVW [VPS39] | 2.36 ± 0.46 | 2.5 ± 0.31 |  | 
10 | VLMIAIQLISRMEYVHSKNLIYRD [CSNK1G3] | 2.86 ± 0.13 | 2.72 ± 0.44 |  | 
11 | VLQENYTHLPKADIFALALTVVCA [WEE1] | 2.69 ± 0.85 | 2.38 ± 0.27 |  | 
12 | VLQIDNAKLAADDFRTKYETELSL [KRT36] | 3.54 ± 0.37 | 3.49 ± 0.14 |  | 
13 | VLVLTKPLGTQVAVNAHQWLDNPE [SEPHS2] | 2.4 ± 0.18 | 2.19 ± 0.37 |  | 
14 | VLYALRSFDYEQFHELQMQVTASD [PCDHGA10] | 2.26 ± 0.12 | 2.22 ± 0.27 |  | 
15 | VMFQRRYYKPGLLMMCFILPTLVP [SCD] | 3.51 ± 0.77 | 2.72 ± 0.71 |  | 
16 | VNPNGQKQQLVDAFLKLAKQRSVC [FAN1] | 3.16 ± 0.27 | 2.92 ± 0.32 |  | 
17 | VNQYVIRPGPSASAASSAAAGEPL [RNF208] | 3.88 ± 0.22 | 3.96 ± 0.23 |  | 
18 | VNSVCWASLNHLDSHILLCLMGLA [DCAF4] | 2.51 ± 0.63 | 2.69 ± 0.36 |  | 
19 | VNVGTTALWKHLKSMHREELEKSG [ZBED2] | 3.65 ± 0.24 | 3.48 ± 0.23 |  | 
20 | VPIPTVNQYLYFLFAPTLIYRDSY [SOAT1] | 3.32 ± 0.3 | 3.24 ± 0.24 |  | 
21 | VQSYMEHYCNSSTDRRVLLMFLDI [SPACA9] | 2.78 ± 0.38 | 2.71 ± 0.56 |  | 

Row | Sequence | protein stability index [1] | protein stability index [2] | protein stability index [3] | protein stability index [4]
22 | VRKREAPAPEAESKQTEKDPGVQE [EFHC1] | 5.47 ± 0.27 | 5.61 ± 0.34 |  | 
23 | VSLVTAELSKDAQASAAPAAPLPE [SLC29A1] | 4.44 ± 0.18 | 4.47 ± 0.16 |  | 
24 | VTGETRVLSSTTLLPRQPLPLGIK [PALM] | 3.66 ± 0.35 | 3.63 ± 0.22 |  | 
25 | VTLLVRGVCYSESQSSASQPRLSY [CLCN6] | 2.83 ± 0.41 | 2.29 ± 0.6 |  | 
26 | VTRQPRNLQDLCRIKIRQCIGLQN [ASB7] | 3.4 ± 0.56 | 3.35 ± 0.39 |  | 
27 | VVGAKKIYAHRVILSACSPYFRAM [KLHL20] | 2.78 ± 0.26 | 2.41 ± 0.84 |  | 
28 | VYYIFERLCAPLFRNIKQEPFSAR [SOAT1] | 2.5 ± 0.71 | 2.61 ± 0.5 |  | 
29 | WALGVCNNSWIRKNSTMVNSEDIF [TRIM43] | 2.03 ± 0.52 | 2.12 ± 0.31 |  | 
30 | WATIEGLVELLQPFKQVAEMLSAS [ZBED1] | 3.01 ± 0.76 | 2.94 ± 0.8 |  | 
31 | WDLNMENRPIETYQVHDYLRSKLC [PPP2R2B] | 2.65 ± 0.34 | 2.72 ± 0.29 |  | 
32 | WEEEKALWVEERALLEGEKALWED [CCDC70] | 5.07 ± 0.28 | 5.22 ± 0.13 |  | 
33 | WEHSAPQRLPRSAPPGSLVTKVTA [PCDHGC5] | 3.84 ± 0.092 | 4.02 ± 0.18 |  | 
34 | WIGKQLPTPVGAVQQDPALSSNRE [CSNK1G3] | 4.11 ± 0.19 | 4.48 ± 0.26 |  | 
35 | WKDIIHNPQALSPQFTGILQLLQS [INTS3] | 2.11 ± 0.34 | 2.14 ± 0.23 |  | 
36 | WKVRYDTFIVSCKFSPDGKYVVSG [WDR88] | 2.31 ± 0.45 | 2.49 ± 0.14 |  | 
37 | WLDNPERWNKVKMVVSREEVELAY [SEPHS2] | 2.87 ± 0.31 | 2.46 ± 0.31 |  | 
38 | WLHCVCVVGFDLELGQAVEVIYPQ [DENND6A] | 2.66 ± 0.95 | 2.46 ± 0.085 |  | 
39 | WQVLCMLSLCCWGWVSGQLRYSVV [PCDHGC5] | 3.24 ± 0.69 | 3.04 ± 0.35 |  | 
40 | WRYVSSLPQPLAAHAGAVHNGKIY [KLHL14] | 2.51 ± 0.26 | 2.73 ± 0.078 |  | 
41 | YAKLAAVAVFFIMLIVYVRFWWL [SEC22B] |  |  | 2.52 ± 0.081 | 2.63 ± 0.075
42 | YAKVKEFIVDILQFLDIGPDVTRV [MATN2] | 3.84 ± 0.32 | 3.81 ± 0.084 |  | 

Row | Sequence | protein stability index [1] | protein stability index [2] | protein stability index [3] | protein stability index [4]
43 | YDLDKIIELNGGQPPLTYKRFQTL [CRY1] | 2.69 ± 0.38 | 2.77 ± 0.32 |  | 
44 | YDPKENKWTRVASMSTRRLGVAVA [KLHL20] | 2.29 ± 0.27 | 2.38 ± 0.28 |  | 
45 | YEENEGAGPYLLNGSYLELSSDRV [ADAMTSL2] | 3.88 ± 0.33 | 4.07 ± 0.46 |  | 
46 | YEKFKLYLTIILILISFTCRFLLN [TMEM120A] | 3.05 ± 0.21 | 2.91 ± 0.39 |  | 
47 | YGICREPVGLVMEYMETGSLEKLL [RIPK4] | 2.29 ± 0.26 | 2.22 ± 0.4 |  | 
48 | YGRIVEVLLMKDRETNKSRGFAFV [RBMX] | 2.9 ± 0.44 | 2.48 ± 0.59 |  | 
49 | YGYVYFRQVRDKTLKRGYFQKSLV [DENND6A] | 2.56 ± 0.46 | 2.1 ± 0.16 |  | 
50 | YINLLNYMDRFTVAGVLPDIEQFF [SPNS1] | 2.93 ± 0.63 | 2.84 ± 0.64 |  | 
51 | YKIVKPLWTSFIQSVSYSKLLSVI [P2RY14] | 2.06 ± 0.16 | 2.36 ± 0.39 |  | 
52 | YKMFASRRKQRYWPFSMDCTGTEA [LOXL2] | 2.3 ± 0.27 | 2.15 ± 0.33 |  | 
53 | YLSKTYCVDATRETNRLGRLINHS [KMT5A] | 2.35 ± 0.046 | 2.62 ± 0.25 |  | 
54 | YNRGEHPIFVNSPTLDAPGGRALV [SMAD6] | 3.13 ± 0.35 | 3.25 ± 0.34 |  | 
55 | YNSPQFKKTMSTFHNLVSLNLNYN [FBXO39] | 2.25 ± 0.32 | 2.12 ± 0.4 |  | 
56 | YPHCTGISQQDPESDSQGQGNGLF [ZC2HC1C] | 3.82 ± 0.23 | 4.43 ± 0.48 |  | 
57 | YQNSIDDRLLVERIFAQYMVPHNL [PDS5B] | 2.21 ± 0.55 | 2.46 ± 0.79 |  | 
58 | YSALREESAKDWETSPLPGMLAPA [PPFIA4] | 4.26 ± 0.23 | 4.04 ± 0.21 |  | 
59 | YSLRNKEFKSALCKIVRRTISLL [OR10K2] |  |  | 2.96 ± 0.64 | 2.93 ± 0.21
60 | YVQWSLPFIVFGATGLTSGLLSLL [SLC22A15] | 3.27 ± 0.45 | 2.94 ± 0.68 |  | 
61 | YVYKPVMNQTCCPQYTIRCRPLQF [ATE1] | 2.65 ± 0.64 | 2.3 ± 0.33 |  | 
